{"source": "patent US20260226176A1", "about": "(THERANOVIR, published 2026)", "binders": {"B1": {"name": "variant 4 of a-NRP1_LEP n° 1 (antibody, V domains shown)", "VH": "EVQLVESGGGLVQPGGSLRLSCAASGFTFSSFGMHWVRQAPGKGLEWVAYISSGSSTIHYADSVKGRFTISRDNAKNSLYLQMNSLRAEDTAMYYCARRHYGSSRYWYFDVWGQGTTVTVSS", "VL": "EIVLTQSPATLSLSPGERATLSCRASQSVKSYLAWYQQKPGQAPRLLIYYASSRATGIPARFSGSGSGTDFTLTISSLEPEDFAVYYCQQYSESPYTFGQGTKLEIK", "notes": "humanized variant of 21B10; isotype control hIgG4; also called variant 4 a-NRP1_LEP; variant n°4 a-NRP1_LEP"}}, "key": {"[1]": {"biological_target": "T1, NRP-1 peptide (Npep)", "T1 construct": "also called synthetic peptide Npep", "T1 peptide": "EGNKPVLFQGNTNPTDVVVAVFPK", "assay": "ELISA, antibody 10 µg/ml, 2 µg immobilised Npep"}, "[2]": {"biological_target": "Werner syndrome ATP-dependent helicase (human) (UniProt Q14191)", "assay": "co-IP from A549 WT lysate, LC-MS/MS, peak area against isotype IP"}, "[3]": {"biological_target": "DNA topoisomerase 2-beta (human) (UniProt Q02880)", "assay": "co-IP from A549 WT lysate, LC-MS/MS, peak area against isotype IP"}, "[4]": {"biological_target": "Core histone macro-H2A.1 (human) (UniProt O75367)", "assay": "co-IP from A549 WT lysate, LC-MS/MS, peak area against isotype IP"}, "[5]": {"biological_target": "Histone H3.1 (human) (UniProt P68431)", "assay": "co-IP from A549 WT lysate, LC-MS/MS, peak area against isotype IP"}, "[6]": {"biological_target": "X-ray repair cross-complementing protein 5 (human) (UniProt P13010)", "assay": "co-IP from A549 WT lysate, LC-MS/MS, peak area against isotype IP"}, "[7]": {"biological_target": "X-ray repair cross-complementing protein 6 (human) (UniProt P12956)", "assay": "co-IP from A549 WT lysate, LC-MS/MS, peak area against isotype IP"}, "[8]": {"biological_target": "DNA-dependent protein kinase catalytic subunit (DNA-PK) (human) (UniProt P78527)", "assay": "co-IP from A549 WT lysate, LC-MS/MS, peak area against isotype IP"}, "[9]": {"biological_target": "Poly [ADP-ribose] polymerase 1 (human) (UniProt P09874)", "assay": "co-IP from A549 WT lysate, LC-MS/MS, peak area against isotype IP"}, "[10]": {"biological_target": "Poly [ADP-ribose] polymerase 2 (human) (UniProt Q9UGN5)", "assay": "co-IP from A549 WT lysate, LC-MS/MS, peak area against isotype IP"}, "[11]": {"biological_target": "DNA ligase 3 (human) (UniProt P49916)", "assay": "co-IP from A549 WT lysate, LC-MS/MS, peak area against isotype IP"}, "[12]": {"biological_target": "T2, native human NRP-1 on the cell surface (human, UniProt O14786 22-923)", "T2 construct": "whole, on cells; endogenous protein; isoform and glycosaminoglycan state on the cells not defined; also called native NRP-1 on MDA-MB-231 cells; native form of NRP-1 protein on the CTCs cell surface", "assay": "flow cytometry, MDA-MB-231 cells, 10 ug/ml, -heparinase"}, "[13]": {"biological_target": "UV excision repair protein RAD23 homolog B (human) (UniProt P54727)", "assay": "co-IP from CTC41.5E lysate, LC-MS/MS, peak area against isotype IP"}, "[14]": {"biological_target": "Histone H2A.Z (human) (UniProt P0C0S5)", "assay": "co-IP from CTC41.5E lysate, LC-MS/MS, peak area against isotype IP"}, "[15]": {"biological_target": "DNA repair protein complementing XP-C cells (human) (UniProt Q01831)", "assay": "co-IP from CTC41.5E lysate, LC-MS/MS, peak area against isotype IP"}, "[16]": {"biological_target": "Werner syndrome ATP-dependent helicase (human) (UniProt Q14191)", "assay": "co-IP from CTC41.5E lysate, LC-MS/MS, peak area against isotype IP"}, "[17]": {"biological_target": "DNA mismatch repair protein Msh2 (human) (UniProt P43246)", "assay": "co-IP from CTC41.5E lysate, LC-MS/MS, peak area against isotype IP"}, "[18]": {"biological_target": "DNA topoisomerase 2-beta (human) (UniProt Q02880)", "assay": "co-IP from CTC41.5E lysate, LC-MS/MS, peak area against isotype IP"}, "[19]": {"biological_target": "Core histone macro-H2A.1 (human) (UniProt O75367)", "assay": "co-IP from CTC41.5E lysate, LC-MS/MS, peak area against isotype IP"}, "[20]": {"biological_target": "DNA topoisomerase 1 (human) (UniProt P11387)", "assay": "co-IP from CTC41.5E lysate, LC-MS/MS, peak area against isotype IP"}, "[21]": {"biological_target": "Histone H3.1 (human) (UniProt P68431)", "assay": "co-IP from CTC41.5E lysate, LC-MS/MS, peak area against isotype IP"}, "[22]": {"biological_target": "X-ray repair cross-complementing protein 5 (human) (UniProt P13010)", "assay": "co-IP from CTC41.5E lysate, LC-MS/MS, peak area against isotype IP"}, "[23]": {"biological_target": "X-ray repair cross-complementing protein 6 (human) (UniProt P12956)", "assay": "co-IP from CTC41.5E lysate, LC-MS/MS, peak area against isotype IP"}, "[24]": {"biological_target": "DNA topoisomerase 2-alpha (human) (UniProt P11388)", "assay": "co-IP from CTC41.5E lysate, LC-MS/MS, peak area against isotype IP"}, "[25]": {"biological_target": "Replication protein A 70 kDa DNA-binding subunit (human) (UniProt P27694)", "assay": "co-IP from CTC41.5E lysate, LC-MS/MS, peak area against isotype IP"}, "[26]": {"biological_target": "Sister chromatid cohesion protein PDS5 homolog B (human) (UniProt Q9NTI5)", "assay": "co-IP from CTC41.5E lysate, LC-MS/MS, peak area against isotype IP"}, "[27]": {"biological_target": "DNA-directed RNA polymerase I subunit RPA1 (human) (UniProt O95602)", "assay": "co-IP from CTC41.5E lysate, LC-MS/MS, peak area against isotype IP"}, "[28]": {"biological_target": "DNA-dependent protein kinase catalytic subunit (DNA-PK) (human) (UniProt P78527)", "assay": "co-IP from CTC41.5E lysate, LC-MS/MS, peak area against isotype IP"}, "[29]": {"biological_target": "Poly [ADP-ribose] polymerase 1 (human) (UniProt P09874)", "assay": "co-IP from CTC41.5E lysate, LC-MS/MS, peak area against isotype IP"}, "[30]": {"biological_target": "SWI/SNF-related matrix-associated actin-dependent regulator of chromatin subfamily A member 5 (human) (UniProt O60264)", "assay": "co-IP from CTC41.5E lysate, LC-MS/MS, peak area against isotype IP"}, "[31]": {"biological_target": "DNA mismatch repair protein Msh6 (human) (UniProt P52701)", "assay": "co-IP from CTC41.5E lysate, LC-MS/MS, peak area against isotype IP"}, "[32]": {"biological_target": "Poly [ADP-ribose] polymerase 2 (human) (UniProt Q9UGN5)", "assay": "co-IP from CTC41.5E lysate, LC-MS/MS, peak area against isotype IP"}, "[33]": {"biological_target": "FACT complex subunit SPT16 (human) (UniProt Q9Y5B9)", "assay": "co-IP from CTC41.5E lysate, LC-MS/MS, peak area against isotype IP"}, "[34]": {"biological_target": "DNA ligase 3 (human) (UniProt P49916)", "assay": "co-IP from CTC41.5E lysate, LC-MS/MS, peak area against isotype IP"}}}
{"binder": "B1", "values": [{"measurement": "Absorbance", "setting": "[1]", "value": 0.855}, {"measurement": "Ratio Area V4/IgG4", "setting": "[2]", "value": 540}, {"measurement": "Ratio Area V4/IgG4", "setting": "[3]", "value": 369}, {"measurement": "Ratio Area V4/IgG4", "setting": "[4]", "value": 1130}, {"measurement": "Ratio Area V4/IgG4", "setting": "[5]", "value": 82.5}, {"measurement": "Ratio Area V4/IgG4", "setting": "[6]", "value": 2.3}, {"measurement": "Ratio Area V4/IgG4", "setting": "[7]", "value": 1.9}, {"measurement": "Ratio Area V4/IgG4", "setting": "[8]", "value": 6.06}, {"measurement": "Ratio Area V4/IgG4", "setting": "[9]", "value": 546}, {"measurement": "Ratio Area V4/IgG4", "setting": "[10]", "value": 259}, {"measurement": "Ratio Area V4/IgG4", "setting": "[11]", "value": 78.8}, {"measurement": "percentage of binding", "setting": "[12]", "value": 12.4, "unit": "%"}, {"measurement": "Ratio Area V4/IgG4", "setting": "[13]", "value": 307}, {"measurement": "Ratio Area V4/IgG4", "setting": "[14]", "value": 624}, {"measurement": "Ratio Area V4/IgG4", "setting": "[15]", "value": 480}, {"measurement": "Ratio Area V4/IgG4", "setting": "[16]", "value": 759}, {"measurement": "Ratio Area V4/IgG4", "setting": "[17]", "value": 335}, {"measurement": "Ratio Area V4/IgG4", "setting": "[18]", "value": 50.1}, {"measurement": "Ratio Area V4/IgG4", "setting": "[19]", "value": 8780}, {"measurement": "Ratio Area V4/IgG4", "setting": "[20]", "value": 6880}, {"measurement": "Ratio Area V4/IgG4", "setting": "[21]", "value": 304}, {"measurement": "Ratio Area V4/IgG4", "setting": "[22]", "value": 38.7}, {"measurement": "Ratio Area V4/IgG4", "setting": "[23]", "value": 58.8}, {"measurement": "Ratio Area V4/IgG4", "setting": "[24]", "value": 538}, {"measurement": "Ratio Area V4/IgG4", "setting": "[25]", "value": 13.6}, {"measurement": "Ratio Area V4/IgG4", "setting": "[26]", "value": 12.5}, {"measurement": "Ratio Area V4/IgG4", "setting": "[27]", "value": 785}, {"measurement": "Ratio Area V4/IgG4", "setting": "[28]", "value": 10.5}, {"measurement": "Ratio Area V4/IgG4", "setting": "[29]", "value": 709}, {"measurement": "Ratio Area V4/IgG4", "setting": "[30]", "value": 589}, {"measurement": "Ratio Area V4/IgG4", "setting": "[31]", "value": 813}, {"measurement": "Ratio Area V4/IgG4", "setting": "[32]", "value": 1}, {"measurement": "Ratio Area V4/IgG4", "setting": "[33]", "value": 5490}, {"measurement": "Ratio Area V4/IgG4", "setting": "[34]", "value": 7770}]}
